Consider 30 sequences from the nanobody polyreactivity screen of Harvey et al. (2022).

The nature of this series: yeast display, Sf9 membrane polyspecificity reagent, FACS + sequencing; frameworks hold sequencing errors. Put shortly: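 Using colony PCR, genes from sorted yeast display clones were amplified, then sequenced on MiSeq at 2 × 250 and filtered by CDR length. The clones had been stained with 10% biotinylated, detergent-solubilized Sf9 membrane reagent for 1 hour at 4 °C and sorted by FACS into low and high (top ~1%) gates on anti-HA and streptavidin fluorescence. Polyreactivity labels come from the gate of origin.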
As to “QVQLVESGGGLVQAGGSLRLSCAASGRTLYGYAMGWYRQAPGKERELVAAISESDGSTYADSVKGRFTISRDNAKNTVYLQMNSLKPEDTAVYYCAADYYWYALQDGYYTYGYTYDYWGQGSQVTVSS”, the “polyreactivity (PSR sort gate)” value was “low polyreactivity”. As for “QVQLVESGGGLVQAGGSLRLSCAASGIIFRGYVMGLYIQAPGKERELVAAINSSTGSTYYADSVKGRFTISRDNAKNTVYLQMNSLKPEDTAVYYCNAEDRGSTYVDFDYWGQGTQVTVSS”, the “polyreactivity (PSR sort gate)” value was “low polyreactivity”. For “QVQLVESGGGLVQAGGSLRLSCAASGSIFYGNAMGWDRQAPGNARELVAAISWNGGSTYYADSVKGRFTISRDNAKNTVYLQMNSLKPEDTAVYYSNADYYYEVDSWGQGTQVTVSS”, the “polyreactivity (PSR sort gate)” value was “low polyreactivity”. Turning to “QVQLVESGGGLVQAGGSLRLSCAASGRTFGRNAMGWYRQAPGKEREFVAAISRRGDTTYYADSVKGRFTISRDNAKNTVYLQMNSLKPEDTAVYYCNADVIKDRFSWYYYWGQGTQVTVSS”, the “polyreactivity (PSR sort gate)” value is listed as “low polyreactivity”. “QVQHVESGGGLVQAGGNLRLSCPASGFTIYYYAMVCDRQAPGKERELVAGISKSGGITYYADSVKGRFTISRDNAKNTVYLQMNSLKPEDTAVYYCAAAEWYQFFIYRYTYEYWGQGSQVTVSS”: the “polyreactivity (PSR sort gate)” value is listed as “low polyreactivity”.

For the sequence “QVQHVESGGGLVQAGGSLRLSCAASGSIFHVNAMGWYRQAPGKERELVAAISSSGGRTYYADSVKGRFTISRDNAKNTVYLQMNSLKPEDTAVYYCAAASQVRQPPNGGNGYWGQGTQVTVSS”, the “polyreactivity (PSR sort gate)” value is “high polyreactivity”. Turning to “QVQLVESGGGLVQAGGSLRLSCAASGRIFDGYAIGWYRQAPGKERELVAAISSRGGRTYYADSVKGRFTISRDNAKNTVYLQMNSLKPEDTAVYYCAAVDPYGEGDYWGQGTQVTVSS”, the “polyreactivity (PSR sort gate)” value was “low polyreactivity”. In the case of “QVQLVESGGGLVQAGGSLRLSCAASGFTFYFYAMAWYRQAPGKERELVAAISSGGSTKYADSVKVRFTISRDNAKNTVYLQMKSLKPEDTAVYYCNRYYPGSGPLGYWGQGTQVTVSS”, the “polyreactivity (PSR sort gate)” value is “low polyreactivity”. Turning to “QVQLVESGGGLVQAGGSLRISCAASGITFKKNDMGWYRQAPGKERELVAAISGRGGSTYYADSVKGRFTISRDNAKNTVYLQMNSLKPEDTAVYYCAADNFKGDSYGTGTYDYWGQGTQVTVSS”, the “polyreactivity (PSR sort gate)” value is “high polyreactivity”.

“QVQLVESGGGLVQAGGSLRLSCAASGSTLASYAMGWYRQAPGKERELVAAISSSGGSTYYADSVKGRFTISRDNAKNTVYLQMNSLKPEDTAVYYCAARTRTRYGIDYYWGQGTQVTVSS”: the “polyreactivity (PSR sort gate)” value is listed as “high polyreactivity”. For the sequence “QVQLVESGGGLVQAGGSLRLSCAASGFIFYYNAMGWYRQAPGKERELVAAISSRGGSTYYADSVKGRFTISRDNAKNTVYLQMNSLKPEDTAVYYCNAKRYFRNHFRTGGMYYWGQGTQVTVSS”, the “polyreactivity (PSR sort gate)” value is “high polyreactivity”. “QVQLVESGGGLVQAGGSLRLSCAASGRTFHYYVMGWYRQAPGKERELVAAISRSGGNTYYADSVKGRFTISLDNAKNTVYLQMNSLKPEDTAVYYCAAALSAYVKWDYYYWGQGTQVTVSS”: the “polyreactivity (PSR sort gate)” value is given as “low polyreactivity”. For the sequence “QVQLVESGGGLVQAGGSLRLSCAASGRTFDYNAMGWYRQAPGKERELVADISNGGTTSYADSVKGRFTISRDNAKNTVYLQMNSLKPEDTAVYYCATLYDWSSFANSYWYFGWEEDYWGQGTQVTVSS”, the “polyreactivity (PSR sort gate)” value is on record as “low polyreactivity”.

Regarding “QDQLVESGGGLVQAGGSLRLSCAASGSIFLKYVMGVYRPEPGKERELVASISSGGGTYYADSVKGRFTISRDNAKNTVYLQMNILKPEDTAVYYCARRPYRGSYAFDYWGQGTQVTVSS”, the “polyreactivity (PSR sort gate)” value is “low polyreactivity”. With “QVQLVESGGGLVQAGGSLRLSCAASGLIVGGYTMGWYRQAPGKERDLVAAIDSADSTYYADSVKGRFTISRDNAKNTVYLQMNSLKPEDTAVYYCATYWFYSGPAFSLRETGGVNYWGQGTQVTVSS”, the “polyreactivity (PSR sort gate)” value was “low polyreactivity”. For the sequence “QVQLVESGGGLVQAGGSLRLSCSASGSTFHPYAMGWYRQAPGKERELVAAINSGDNTYYADSVKGRFTITRDNAKNTVYLQMNSLKPEDTAVYYCAVRYWDESHTEYDYWGQGTQVTVSS”, the “polyreactivity (PSR sort gate)” value is “low polyreactivity”. Turning to “QVQLVESGGGLVQAGGSLRLSCAASGYTFGWYAMGWYRQAPGTERELVAGISSAGSTNYADSVKGRFTISRDNAKNTVYLQMNSLKPEDTAVYYCARDKWGLRYAPTVDYWGQGTQLTVSS”, the “polyreactivity (PSR sort gate)” value is “high polyreactivity”. On to “QVQLVESGGGLVQAGGSLRLSCAASGSIFHGYAMGWYRQAHGKETELVAVITRGGNTYYADSVKGRFTISRDNAKNTVYLQMNSLKPEDTAVYYCNKAVDRGRRAYGYWGQGTQVTVSS”, for which the “polyreactivity (PSR sort gate)” value is on record as “high polyreactivity”. The value for “QVQLVESGGGLVQAGGSLRLSCAASGLTLGDNPMGWYRQAPGKERELVAAITSGGVNTYYADSVKGRFTISRDNAKNTVYLQMNSLKPEDTAVYYCAVPNRVYSQQYKFSVRYYYWGQGTQVTVSS” was “low polyreactivity”. Regarding “QVQLVESAGGLVQAGGSLRLSCAASGSTFANYAMGWYRQAPGKERELVAGISWRGGRTYYADSVKGRFTISRDNAKNTVYLQMNSLKPEDTAVYYSAVVHQTFTGDYWGQGTQVTVSS”, the “polyreactivity (PSR sort gate)” value is “high polyreactivity”. Next, “QVQLVESGGGLVQAGGSLRLSCAASGFTCTRYAMGWYRQAPGKERELVATITGGGRTNYADSVKGRFTISRDNAKNTVYLQMNSLKPEDTADYYCNAKYRVYWGSGKFDYWGQGSQVTVSS”: “high polyreactivity”; “QVQLVESGGGLVQAGGSLRLSSAASGRTFVNYTMGWYRQAPGIERELVAAITSSGGSTYYADSVKGRFTISRDNAKNTVYLQMNSLKPEDTAVYYCAAAKFDLSFWLYYWGQGTQVTVSS”: “low polyreactivity”. Take “QVQLVESGGGLVQAGCSLRLSCAASGRNFVHYAMGWYRQAPGKERDLVAAISWSGGNTYYADSVKGRFTISRDNAKNTVYLQMNSLKPEDTAVYYCARAPYYVASGHRRVLRPTYEYWGQGTQVTVSS”: the “polyreactivity (PSR sort gate)” value is reported as “low polyreactivity”. Next, “QVQLVESGGGLVQAGGSLRLSCAASGRTFWIYTMGWYRQAPGKEREFVAAISIRGGSTYYADSVKGRFTISRDNAKNTVYLQMNSLKPEDTAVYYCAADGGYSLWADDDYWGQGTQVTVSS”: “low polyreactivity”.

For the sequence “QVQLVESGGGLVQEGGSLRLSCAASGSIFRYYAMGWYRQAPGKERELVAVITRGGSTYYADSVKGRFTISRDNAKNTVYLQMNSLKPEDTAVYYCAAEDYVIGDSGYDYWGQGTQVTVSS”, the “polyreactivity (PSR sort gate)” value is “low polyreactivity”. “QVQLVESGGGLVQAGGSLRFSCAASGSIFYGYTMGWYRQAPGKERELVAGISTYYADSVKGRFTISRDTAKNTVYLQMNSLKPEDTAVYYCAADYSSPTSEYDYWGQGTQVTVSS”: the “polyreactivity (PSR sort gate)” value is on record as “low polyreactivity”. The value for “QVHLVESGGGLVQAGGSLRLSCAASGSTFYRYAMGWYRQAPGKERELVAAITRSGGSTYYADSVKGRFTISRDNAKNTVYLLMNSLKPEDTAVYYCAADRYYVYTFYYWGQGTQVTVSS” was “high polyreactivity”. With “QVQLVESGGGLVQAGGSLRLSCAASGITFEDNAMGWYRQAPGKERELVATISDGGRTYYADSVKGRFTISRDNAKNTVYIQMNSLKPEDTAVYYCAAGYPYYHVYGYGYWGQGTQVTVSS”, the “polyreactivity (PSR sort gate)” value is “low polyreactivity”. “QVQLVESGGVLVQAGGSLRISCAASGSTFYSYDMGWYRQAPGKERELVAAISSSSGSTYYADSVKARFTISRDNAKNTVYLQMNSLKPEDTAVYYCKRGRRYSHKYDYWGQVTQVTVSS”: the “polyreactivity (PSR sort gate)” value is given as “high polyreactivity”. As for “QVQLVESGGGLVQAGGSLRLSCAASGRTFYKYMGWYRQAPGKERELVAAIRWSGGSTYYADSVKGRFTISRDNAKNTVYLQMNSLKPEDTAVYYCAAGKQAPAVNYGYYYWGQGTQVTVSS”, the “polyreactivity (PSR sort gate)” value is reported as “low polyreactivity”.
